Results reported in US20240318215A1.

Experiments:
[1] = biological target: pMag (F1) fused to second half of 563 T7RNAP non-star variant; assay: cell-based or functional assay
[2] = biological target: pMag fused to C-terminal part of split T7 RNA polymerase, as carried on the pT7-Opto plasmid; assay: cell-based or functional assay
Sequence of pMag fused to C-terminal part of split T7 RNA polymerase, as carried on the pT7-Opto plasmid (chain, as listed by the source limits assumed): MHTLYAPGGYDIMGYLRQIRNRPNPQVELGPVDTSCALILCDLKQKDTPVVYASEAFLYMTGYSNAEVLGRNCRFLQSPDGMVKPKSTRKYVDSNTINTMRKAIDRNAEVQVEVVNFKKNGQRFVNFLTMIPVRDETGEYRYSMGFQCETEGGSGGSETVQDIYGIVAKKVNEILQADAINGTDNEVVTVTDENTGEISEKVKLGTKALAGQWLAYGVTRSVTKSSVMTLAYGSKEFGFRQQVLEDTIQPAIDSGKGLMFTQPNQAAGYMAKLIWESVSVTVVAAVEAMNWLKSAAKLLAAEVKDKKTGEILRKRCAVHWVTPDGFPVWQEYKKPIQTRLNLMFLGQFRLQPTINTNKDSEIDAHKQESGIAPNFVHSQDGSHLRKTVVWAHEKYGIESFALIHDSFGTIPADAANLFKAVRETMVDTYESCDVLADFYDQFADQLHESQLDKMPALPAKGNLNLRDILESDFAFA

Sequence of pMag (F1) fused to second half of 563 T7RNAP non-star variant (chain, as listed by the source mutant limits assumed): as the sequence (chain, as listed by the source limits assumed) above, with S225R counted along it

B1: N-terminal part of split T7 RNA polymerase (563 split) fused to nMag (protein)
chain: MNTINIAKNDFSDIELAAIPFNTLADHYGERLAREQLALEHESYEMGEARFRKMFERQLKAGEVADNAAAKPLITTLLPKMIARINDWFEEVKAKRGKRPTAFQFLQEIKPEAVAYITIKTTLACLTSADNTTVQAVASAIGRAIEDEARFGRIRDLEAKHFKKNVEEQLNKRVGHVYKKAFMQVVEADMLSKGLLGGEAWSSWHKEDSIHVGVRCIEMLIESTGMVSLHRQNAGVVGQDSETIELAPEYAEAIATRAGALAGISPMFQPCVVPPKPWTGITGGGYWANGRRPLALVRTHSKKALMRYEDVYMPEVYKAINIAQNTAWKINKKVLAVANVITKWKHCPVEDIPAIEREELPMKPEDIDMNPEALTAWKRAAAAVYRKDKARKSRRISLEFMLEQANKFANHKAIWFPYNMDWRGRVYAVSMFNPQGNDMTKGLLTLAKGKPIGKEGYYWLKIHGANCAGVDKVPFPERIKFIEENHENIMACAKSPLENTWWAEQDSPFCFLAFCFEYAGVQHHGLSYNCSLPLAFDGSCSGIQHFSAMLRDEVGGRAVNLLPGGSGGHTLYAPGGYDIMGYLDQIGNRPNPQVELGPVDTSCALILCDLKQKDTPIVYASEAFLYMTGYSNAEVLGRNCRFLQSPDGMVKPKSTRKYVDSNTINTIRKAIDRNAEVQVEVVNFKKNGQRFVNFLTIIPVRDETGEYRYSMGFQCETE
[1]
  increase of Tyr1 production (initial rate of melanin production, OD405) in blue light, strain Opto-T7RNAP(563-F1) with pT7 tyr1, 1 mg/mL arabinose: 5.35 fold
  increase of mCherry production in response to blue light, plate reader, strain Opto-T7RNAP(563-F1) with pT7 mCherry, 10 mg/mL arabinose: 7.4 fold
[2]
  average pixel intensity (16-bit fluorescence scan) of the blue-light-exposed region of the pT7-Opto pellicle (pixel intensity (16-bit)): 10400
  average pixel intensity (16-bit fluorescence scan) of the unexposed region of the pT7-Opto pellicle (pixel intensity (16-bit)): 5520
  average red fluorescence of the light-exposed against the unexposed area of a K. rhaeticus pT7-Opto pellicle, fluorescence scan, 0.1% arabinose: 1.8 fold
  change in mCherry blue light response from dark to bright, flow cytometry, 96-well plate, 0.1% (w/v) arabinose: 2.57 fold
  change in mCherry blue light response from dark to bright, flow cytometry, 96-well plate, no arabinose: 2.57 fold
  fold change of mCherry between dark and light states, flow cytometry, 96-well plate, 1% (w/v) arabinose: 1.33 fold
  fold change of mCherry between dark and light states, flow cytometry, 96-well plate, 10% (w/v) arabinose: 1.04 fold
  mCherry expression, blue light against dark culture, flow cytometry, K. rhaeticus pT7-Opto, 0.1% arabinose: 7.5 fold
